The DeepSol protein solubility set

Assay: soluble on expression in E. coli; label from the status in PepcDB or PDB records
With “MRWKRTLQLLDVHCEGEIGRVVTGGAPKIPGNTVAEQLHWMNTDPQGEALRRFLTLEPRGTPMGSVDLLLPPKHPDAHAAFVILQPDQAHASSGSNSICATTALLESGMVEMQEPETVIILETAAGLVKATATCRDGRCEKVKLTMVPSFVHELDVSIDTPEWGRVTMDISYGGIFYALVDVRQIGLTIEKANAAKLVAAGMTLKDLVNREMTVVHPEIPAISGVAYVMFRDVDADGSIRTCTTMWPGRADRSPCGTGNSANLATLYARGKVKVGDEYKSRSIIGSEFDVGLSAVTEVAGRPAVIPTIAGRGFTFGLHQVGLDPFDPLGDGFAMTDVWGPEAGNI” the “soluble on expression in E. coli” value was “not soluble”.
In the case of “MRFERFVGIDPSLRTGFVALSPFGEVIEAKEIEKEGDDPARMSKLIQVVVDSVHDTDFVAIEGFGYASQRGFLLGGIGWGMRMELYRRGIPYIDVAPSLLKKFAGAKGNANKEKVVLEVYKRWGFESDSNNVIDAFVLAQIARAAKTETKLIQAQKEVLNKLFK”, the “soluble on expression in E. coli” value is reported as “not soluble”.
With “MSLKWSITQLRKYQGKPFEFDQTVSFDNLKESLDLIDLSPITIQGQLTIKSTEVVADIHITGTYTMPCARTLVPVKVPLDVTTTEVFDLEGYNQYNDDQDDVDEHYHIIKDGMVNLQDIVEDIVIIEKPMRAYSEQSDQMLTVGNGWEVIDEDQLDELAKQQEQDDSESRQVDPRLQKLQQLYDKEQEGHHHHHH” the “soluble on expression in E. coli” value was “soluble”.
In the case of “MGSDKIHHHHHHMRDLLNDLSEGLSHPDPILRAQIQMQKPLPKRFYKDVTVADVEEGGFTILLDGKPLRTPAKKPLVAPSRALADLLRDEWDAQKEVVNPVVMPVSRHVNTAIDGIASDTQAVFEDILRFSSSDLLCYRAGDPEALVARQTDYWDPVLDWATNVLGARFILVEGVMHRDQPREAIAAFAVTLKKYDTPIALAALHTMTSLTGSAILALALAEGELTLEEAWALAHLDEDWTAEQWGEDEEALERRAVRLIDMRAALNVLESLKSAS”, the “soluble on expression in E. coli” value is reported as “not soluble”.
With “MLVGERLENEPNFYQEIDFLKHLAGINGVPVVHKHFQYEQKRVLVMDKYLENLEQFRKRKEDEKLSPRVVIKLAFRLVSILEHIHRKGVVHQDIKLDNVVFGAKVGNKLDIVLIDYGIAAFTKPKPPRDLVDGALHCTTDFSSSVYASPGLVQGLKGDPVDDLQMLSFMLLWASKYNPFGEDSLESLRKKKEFIAKPSIFTQGDYKFLRPVISKIMEQKRSKRPDYKAISKKCANKDNYFNPDTAVHLGNAYEFF” the “soluble on expression in E. coli” value was “not soluble”.
With “MGHHHHHHSHMRPLTEEETRVMFEKIAKYIGENLQLLVDRPDGTYCFRLHNDRVYYVSEKIMKLAANISGDKLVSLGTCFGKFTKTHKFRLHVTALDYLAPYAKYKVWIKPGAEQSFLYGNHVLKSGLGRITENTSQYQGVVVYSMADIPLGFGVAAKSTQDCRKVDPMAIVVFHQADIGEYVRHEETLT” the “soluble on expression in E. coli” value was “soluble”.
For “MGSDKIHHHHHHMYKKSVDLSLESVLVEIDENKKLMPSRNATVQPVALMRLGLFLPSLKRKGKDTENISIDASSELQSLELARAEGYTDIRITGPRLSMETDFKVWVGIILAFSKYGLNSSTIELPFSEFATFCGFSSKDKDKGLRTRLADSLIRLRSTTIKLASEKDRNGVVSGLLSRGKWDEKDDIMELTADESLWELYQFDRQVLLQMFIIRQLANKGTAQALYTFIESLPERPIPLSFARIKRRLMLTSPNNQQNRVINKAIDELKAVGYLDGDVVKKDGEWHLIITRRTPRPDIKAMSEALKDGE”, the “soluble on expression in E. coli” value was “not soluble”.
With “MDHENLMKYLEEFRSIRFQPDFQKVDAERNVRYCEITDFPISNISFELLETGVSQQWRNCDQNLFNEYLKTYKNGGYSQFEDLLFKIWGYSEEKERFDLPALKSFYRKMSEIVGEDEVLEKLARLVRITKSACEVLPEKIYRLVGDIESATFSHIQCASLIAWMFFSDTPRLSFIIILQKTTCVAVEKLKFLFTYFDKMSIDPPIGAVSFRKMRITHKQYLENWKLRETNLLPDVQVFDKMSIEETALCTQIDFANKRLGGGVLKGGAVQEEIRFMMCPEMMVAILLNDVTQDLEAISIVGAYVFSSYTGYSNTLKWAKITPKHSAQNNNSFRDQFGRLQTETVAIDAVRNAGTPLECLLNQLTTEKLTREVRKAAIGFLSAGDGFSKIPVVSGWWGCGAFRGNKPLKFLIQVIACGISDRPLQFCTFGDTELAKKCEEMMTLFRNNNVRTGQLFLIINSIGPPLNYSEQYVFDAIRAKINSTKA” the “soluble on expression in E. coli” value was “not soluble”.
For “GVACKPKEKPSSATSLTDDALMDTVQRRTFNYFWDAAEPNSGLARERYHMDGEYPAGGPEIVTSGGSGFGIMAILAGIDRGYVSREEGLRRMEKIVGFLEKADRFKGAYPHWWNGETGHVQPFGQKDNGGDLVETAFLMQGLLAVHQYYAEGSAEEKKLAGRIDKLWREVDWNWYRHGGQNVLYWHWSPEYGWEMNFPVHGYNECLIMYILAAASPTHGVPAAVYHEGWAQNGAIVSPHKVEGIELHLRYQGGEAGPLFWAQYSFLGLDPVGLKDEYCPSYFNEMRNLTLVNREYCIRNPKHYKGYGPDCWGLTASYSVDGYAAHGPLERDDRGVISPTAALSSIVYTPDQSLQVMHHLYEMGDKVFGPYGFYDAFSETADWYPKRYLAIDQGPIAVMIENYRTGLLWKLFMSHPDVQNGLKKLGFNVKK”, the “soluble on expression in E. coli” value was “soluble”.
In the case of “SLQQSAKKNAAPAPAAQPAPAPTQPQADGAQQAGWVVRCTSVSRDAPLECAMEQNAVLTKTGQTIVLINIRIAPDTRTPVALLQLPLGLNLPIGAKLQVDEGKTVDLQIQTCENRGCYASTPIAADLLAALRSGKQLKVSFQNMAKETIAIPMPLGDFAAAYDKIK”, the “soluble on expression in E. coli” value is reported as “not soluble”.
With “MNSDVIKGKWKQLTGKIKERWGDLTDDDLQAADGHAEYLVGKLQERYGWSKERAEQEVRDFSDRL” the “soluble on expression in E. coli” value was “soluble”.
With “MGSDKIHHHHHHMSESLPPDAQRSPSYRAGVGLKAEHYRTILESQPDIGFFEVHAENYMGAGGPPHRFLSAIRESYPLSLHGVGLSIGADRPLDRDHLQRLKELIARYSPALFSEHLAWSSHDCGFLNDLLPVPYTAESLTRIVDHIDQVQEVLGRQMLLENPSTYLAFEESTYPEIDFIAAVVRRTGCGLLLDVNNVYVASINQQWDPFAYIDEYPLAAVQEIHLAGHAEETDEKARPLLIDSHDRHVADVVWDLYARAIRGTGPIPTLIEWDANIPDWPTLKAEAGRADAVVQAATQPASVDHVTIRSQFDMTRRRLKEAQTL” the “soluble on expression in E. coli” value was “not soluble”.
In the case of “GMNPFQNSFGGHIPQDVAGKQGENVIFIVYNLTDSPDTVDKVKDVCANFSAMIRSMRNRFPDMQFSCTMGFGADAWTRLFPDKGKPKELSTFSEIKGEKYTAVSTPGDLLFHIRAKQMGLCFEFASILDEKLKGAVVSVDETHGFRYMDGKAIIGFVDGTENPAVDENPYHFAVIGEEDADFAGGSYVFVQKYIHDMVAWNALPVEQQEKVIGRHKFNDVELSDEEKPGNAHNAVTNIGDDLKIVRANMPFANTSKGEYGTYFIGYASTFSTTRRMLENMFIGSPAGNTDRLLDFSTAITGTLFFVPSYDLLGELGE”, the “soluble on expression in E. coli” value is reported as “soluble”.
For “APAILLVDDEPHSLAAMKLALEDDFDVLTAQGAEAAIAILEEEWVQVIICDQRMPGRTGVDFLTEVRERWPETVRIIITGYTDSASMMAAINDAGIHQFLTKPWHPEQLLSSARNAARMFTLARENERLSLEMRLLERP”, the “soluble on expression in E. coli” value was “soluble”.
In the case of “MDQLWANRAASAEAAITERHLKKLWGLPGTQLGVVAWPPARKYTLFGTWHYWWQAHLLDCLVDAQVRDPQPERTTRIERQLRAHRLRNNLSWVNDYYDDMAWLALAIERAGRLAGVEKPTALRKLCDQFVTAWVPEDGGGIPWRKQDQFFNAPANGPAGIFLARYDDRLRRAQQMADWIDETLIDPDTHLVFDGIKAGSLVRAQYTYCQGVVLGLEVELAVRTQDPRHAPRVRRLVAAVDKEMTTDGVIKGAGGGDGGLFNGILARYLALVATTLPGETPEDIAARDTARTIVLKSARSAWDHRQTVDGLPLFSAFWDRNAEIPTAGGKEAEFVEGAVNASSVPERDLSVQLAGWMLMEAAHSVDSVDAEDAAGDQNGAGDGEVGHDENEDEELEHHHHHH”, the “soluble on expression in E. coli” value is reported as “soluble”.
For “SFVKDFKPQALGDTNLFKPIKIGNNELLHRAVIPPLTRMRALHPGNIPNRDWAVEYYTQRAQRPGTMIITEGAFISPQAGGYDNAPGVWSEEQMVEWTKIFNAIHEKKSFVWVQLWVLGWAAFPDNLARDGLRYDSASDNVFMDAEQEAKAKKANNPQHSLTKDEIKQYIKEYVQAAKNSIAAGADGVEINSANGYLLNQFLDPHSNTRTDEYGGSIENRARFTLEVVDALVEAIGHEKVGLRLSPYGVFNSMSGGAETGIVAQYAYVAGELEKRAKAGKRLAFVHLVEPRVTNPFLTEGEGEYEGGSNDFVYSIWKGPVIRAGNFALHPEVVREEVKDKRTLIGYGRFFISNPDLVDRLEKGLPLNKYDRDTFYQMSAHGYIDYPTYEEALKLGWDKS”, the “soluble on expression in E. coli” value was “soluble”.
In the case of “MHMSQSTQRAYQEVLDWLEKELRKGSIAIGDKLPGERALAEQFELSRASVREAIRILTSMGLVRTGTGSGPHSGAIVISEPSAGLSWAIRMHLSARSLPLKDLVNTCILIESNAAADAATPKISPDSPERSHVLNEAHRLLDSMDDPTLPFHDYHIKDVNFHILITSLAGNLVTETIMESLRYSAIAFVIERLAMRTDWAEVSEKLQREHRNILRAIEERNPDKARTLVHDHIADFYELTSH”, the “soluble on expression in E. coli” value is reported as “not soluble”.
In the case of “MGSDKIHHHHHHMKRINRFAVQIDVEGRTELAHLHDPGRLLEIVYPGNEVLVRRTDGPKLKWRIEFGKINGRYVLIDSGLHSDIARRFLPEGAVPEVRVGRKRIDFRYGDDYIEVKGCTLMANGIAMFPDAPTKRGLEHLKTLETLASSGYRSHVMMIITRDDVRCFYPNFETDPKFAEAFLRLVPAYVKAHFLTFGFDGLYLRYAGSIGLCADVGHGTNGRL”, the “soluble on expression in E. coli” value is reported as “not soluble”.
In the case of “MNQGEIVYQDDDDYYDESEIYDNYEEGAEFIEVNGQLVPHNPAQQNRPGTSSMIQQHNRSMEVNQGLVKDEPIDTSSHRVYVPPPRPVQRKPGPSTPGSSQYTVRNLSNLSGSPSMYDRQPASLPRTVQPMGLEMGNSEQRKVYIDMKDHVSHIRLKTKKKVFAPGQRKPCNCTKSQCLKLYCDCFANGEFCRDCNCKDCHNNIEYDSQRSKAIRQSLERNPNAFKPKIGIARGGITDIERLHQKGCHCKKSGCLKNYCECYEAKVPCTDRCKCKGCQNTETYRMTRYKNSGGAVSNTNALMSLTNASSTATPDSGPGSVVTDEHGDDYEDMLLSHKPKVEMDPRRFPWYYMTDEVVEAATMCMVAQAEEALNYEKVQTEDEKLINMEKLVLREFGRCLEQMITNTTELTQDLDAAPTDDIPGPSTSTS”, the “soluble on expression in E. coli” value is reported as “not soluble”.
In the case of “MAHHHHHHMGTLEAQTQGPGSMNLDNVTGGDNVPKEINVIIEISQNSCPVKYEFDKEKNLFCVDRFLPTSMYYPCNYGFIPHTCAGDGDPVDVLVASRFPVMSGAVIRARPVGVLVMHDESGEDVKILAVPTHKVDQYYNNIKDYSDFPVSFLNSISHFFTFYKKLEEDKFVSVEGWKDVTVAEKLILSALIK”, the “soluble on expression in E. coli” value is reported as “soluble”.
In the case of “MGHHHHHHSHMASGSNWLSGVNVVLVMAYGSLDLKEEIDIRLSRVQDIKYEPQLLADDDARLLQLETQGNQKIPFHSEGRHPRSLMGKNFRSYLLDLRNTSTPFKGVRKALIDTLLDGYETARYGTGVFGQNEYLRYQEALSELATAVKARIGSSQRHHQSAAKDLTQSPEVSPTTIQVTYLPSSQKSKRAKHFLELKSFKDNYNTLESTL”, the “soluble on expression in E. coli” value is reported as “not soluble”.
With “MGSDKIHHHHHHMMKLTALVDNTRLDSRPELAVERGLSFHVETMGSQILFDTGSSSTFCENAALMNISIQDVDLAVISHRHHDHCNGTTHFIERNSKAKIYLKDCEDKNYLFKAFGFKNDVGINKELLKNASERLIFVEHTTEILPNIFIITEISDKYEKPKGNRYLYTQSENGYKNDTFDHELLLVVKESDGLIVFTGCAHSGVLNMVETAIELFPNHRIKAVVGGFHLVGLPLLNSIGGTKQDIQAIGQALSHYPIDKLYTGHCTGMKAFGLLKEVLGDRLEHLPTGRSVLI” the “soluble on expression in E. coli” value was “not soluble”.
